# In PMC11333492:
# What was measured:
# [1] = target: B/Memphis/13/2003 FluPol PA-NE332-333AA (PB2, PA mutant, PB1-luc2); details: parent: est. 100; read off a plot
# [2] = target: B/Memphis/13/2003 FluPol PA-NENF332-335AAAA (PB2, PA mutant, PB1-luc2); details: parent: est. 100; read off a plot
# [3] = target: B/Memphis/13/2003 FluPol PA-NY360-361AA (PB2, PA mutant, PB1-luc2); details: parent: est. 100; read off a plot
# [4] = target: FluPolB (influenza B/Memphis/13/2003 polymerase heterotrimer) (influenza B/Memphis/13/2003) (UniProt Q5V8Z9); experiment: mass photometry
substance,measurement,setting,value
"B/Memphis/13/2003 FluPol wild type (PB2, PA, PB1-luc1) for the split luciferase assays (from UniProt Q5V8Z9;Q5V8Y6;Q5V8X3) PA:N332A; PA:E333A",percent of parent,[1],33 % FluPol-WT
"B/Memphis/13/2003 FluPol wild type (PB2, PA, PB1-luc1) for the split luciferase assays (from UniProt Q5V8Z9;Q5V8Y6;Q5V8X3) PA:N332A; PA:E333A; PA:N334A; PA:F335A",percent of parent,[2],9 % FluPol-WT
"B/Memphis/13/2003 FluPol wild type (PB2, PA, PB1-luc1) for the split luciferase assays (from UniProt Q5V8Z9;Q5V8Y6;Q5V8X3) PA:N360A; PA:Y361A",percent of parent,[3],6 % FluPol-WT
FluPolB (influenza B/Memphis/13/2003 polymerase heterotrimer) (from UniProt Q5V8Z9;Q5V8Y6;Q5V8X3) (complex),percent dimers,[4],14%
